Experimental data reported in patent publication US20040029228A1.

Columns and labels:
Experiment in all cases: cell-based or functional assay
[1] = biological target: T1, human zcytor19 (Zyctor19) cytokine receptor (human)
T1 sequence (Q8IU57 1-520, looked up): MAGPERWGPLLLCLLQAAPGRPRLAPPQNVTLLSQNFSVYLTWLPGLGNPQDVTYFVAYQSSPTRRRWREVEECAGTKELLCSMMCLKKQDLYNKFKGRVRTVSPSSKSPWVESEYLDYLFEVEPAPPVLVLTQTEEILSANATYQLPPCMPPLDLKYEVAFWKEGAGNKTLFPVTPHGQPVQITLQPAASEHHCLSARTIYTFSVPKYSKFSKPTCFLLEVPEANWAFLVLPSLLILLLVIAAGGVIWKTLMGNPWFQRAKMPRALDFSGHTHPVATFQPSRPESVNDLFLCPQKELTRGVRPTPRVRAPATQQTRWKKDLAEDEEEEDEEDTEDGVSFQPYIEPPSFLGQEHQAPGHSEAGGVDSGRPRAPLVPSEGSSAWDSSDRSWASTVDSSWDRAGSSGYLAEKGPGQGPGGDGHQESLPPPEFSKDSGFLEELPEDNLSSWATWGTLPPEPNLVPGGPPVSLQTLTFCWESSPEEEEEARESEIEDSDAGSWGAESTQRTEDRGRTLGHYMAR

[2] = biological target: human CRF2-4 (IL10Rb) (human)
[3] = biological target: zcytoR19 and IL10Rb (CRF2-4) co-expressed on cells (heterodimeric receptor) (human)

Sequence of human CRF2-4 (IL10Rb) (human) (Q08334 whole entry): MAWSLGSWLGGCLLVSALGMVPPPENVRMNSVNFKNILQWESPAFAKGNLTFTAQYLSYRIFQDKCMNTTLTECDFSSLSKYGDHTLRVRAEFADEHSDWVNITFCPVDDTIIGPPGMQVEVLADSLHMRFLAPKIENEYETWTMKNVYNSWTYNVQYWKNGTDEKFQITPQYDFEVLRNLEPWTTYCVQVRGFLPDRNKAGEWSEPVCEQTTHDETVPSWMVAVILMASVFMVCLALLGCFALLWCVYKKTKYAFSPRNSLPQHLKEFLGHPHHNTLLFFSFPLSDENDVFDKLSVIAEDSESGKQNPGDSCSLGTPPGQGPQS
Sequence of zcyto21 (ligand) (Q8IU54 20-200): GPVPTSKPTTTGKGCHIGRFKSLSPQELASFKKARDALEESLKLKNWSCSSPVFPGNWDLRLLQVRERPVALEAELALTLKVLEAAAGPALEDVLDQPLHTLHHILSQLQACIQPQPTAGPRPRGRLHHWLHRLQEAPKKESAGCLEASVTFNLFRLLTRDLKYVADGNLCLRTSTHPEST

Substance: huIL10 (from UniProt P22301 19-178) (ligand)
- ISRE-luciferase fold induction, 293 cells transfected with ISRE-Luc./Zcytor19, HuIL10 100 ng/ml (fold induction) [1]: 0.5

Substance: zcyto20 (ligand)
- ISRE-luciferase fold induction, 293 cells transfected with ISRE-Luc./Zcytor19, Zcyto20 125 ng/ml (fold induction) [1]: 125
- ISRE-luciferase fold induction, BHK cells transfected with zcytoR19 alone, zcyto20 0.001 ng/ml (fold induction) [1]: 1.4
- ISRE-luciferase fold induction, BHK cells transfected with zcytoR19 alone, zcyto20 0.01 ng/ml (fold induction) [1]: 1.2
- ISRE-luciferase fold induction, BHK cells transfected with zcytoR19 alone, zcyto20 0.1 ng/ml (fold induction) [1]: 1.25
- ISRE-luciferase fold induction, BHK cells transfected with zcytoR19 alone, zcyto20 1 ng/ml (fold induction) [1]: 1.3
- ISRE-luciferase fold induction, BHK cells transfected with zcytoR19 alone, zcyto20 10 ng/ml (fold induction) [1]: 2.1
- ISRE-luciferase fold induction, BHK cells transfected with zcytoR19 alone, zcyto20 100 ng/ml (fold induction) [1]: 2.2
- ISRE-luciferase fold induction, BHK cells transfected with zcytoR19 alone, zcyto20 1000 ng/ml (fold induction) [1]: 2.25
- ISRE-luciferase fold induction, wild-type 293 cells, Zcyto20 0.01 ng/ml (fold induction) [2]: 1
- ISRE-luciferase fold induction, wild-type 293 cells, Zcyto20 0.01 ng/ml + IL10Rb neutralizing Antibody (fold induction) [2]: 0.8
- ISRE-luciferase fold induction, wild-type 293 cells, Zcyto20 0.1 ng/ml (fold induction) [2]: 1
- ISRE-luciferase fold induction, wild-type 293 cells, Zcyto20 0.1 ng/ml + IL10Rb neutralizing Antibody (fold induction) [2]: 1
- ISRE-luciferase fold induction, wild-type 293 cells, Zcyto20 1 ng/ml (fold induction) [2]: 1
- ISRE-luciferase fold induction, wild-type 293 cells, Zcyto20 1 ng/ml + IL10Rb neutralizing Antibody (fold induction) [2]: 0.9
- ISRE-luciferase fold induction, wild-type 293 cells, Zcyto20 10 ng/ml (fold induction) [2]: 4
- ISRE-luciferase fold induction, wild-type 293 cells, Zcyto20 10 ng/ml + IL10Rb neutralizing Antibody (fold induction) [2]: 0.9
- ISRE-luciferase fold induction, wild-type 293 cells, Zcyto20 100 ng/ml (fold induction) [2]: 8.4
- ISRE-luciferase fold induction, wild-type 293 cells, Zcyto20 100 ng/ml + IL10Rb neutralizing Antibody (fold induction) [2]: 0.8
- ISRE-luciferase fold induction, zcytoR19-overexpressing 293 cells, Zcyto20 0.01 ng/ml (fold induction) [2]: 1.1
- ISRE-luciferase fold induction, zcytoR19-overexpressing 293 cells, Zcyto20 0.01 ng/ml + IL10Rb neutralizing Antibody (fold induction) [2]: 1.2
- ISRE-luciferase fold induction, zcytoR19-overexpressing 293 cells, Zcyto20 0.1 ng/ml (fold induction) [2]: 6
- ISRE-luciferase fold induction, zcytoR19-overexpressing 293 cells, Zcyto20 0.1 ng/ml + IL10Rb neutralizing Antibody (fold induction) [2]: 1.1
- ISRE-luciferase fold induction, zcytoR19-overexpressing 293 cells, Zcyto20 1 ng/ml (fold induction) [2]: 68
- ISRE-luciferase fold induction, zcytoR19-overexpressing 293 cells, Zcyto20 1 ng/ml + IL10Rb neutralizing Antibody (fold induction) [2]: 1.3
- ISRE-luciferase fold induction, zcytoR19-overexpressing 293 cells, Zcyto20 10 ng/ml (fold induction) [2]: 97
- ISRE-luciferase fold induction, zcytoR19-overexpressing 293 cells, Zcyto20 10 ng/ml + IL10Rb neutralizing Antibody (fold induction) [2]: 23
- ISRE-luciferase fold induction, zcytoR19-overexpressing 293 cells, Zcyto20 100 ng/ml (fold induction) [2]: 91
- ISRE-luciferase fold induction, zcytoR19-overexpressing 293 cells, Zcyto20 100 ng/ml + IL10Rb neutralizing Antibody (fold induction) [2]: 60
- ISRE-luciferase fold induction, BHK cells transfected with zcytoR19 and IL10Rb (CRF2-4), zcyto20 0.001 ng/ml (fold induction) [3]: 1.5
- ISRE-luciferase fold induction, BHK cells transfected with zcytoR19 and IL10Rb (CRF2-4), zcyto20 0.01 ng/ml (fold induction) [3]: 1.6
- ISRE-luciferase fold induction, BHK cells transfected with zcytoR19 and IL10Rb (CRF2-4), zcyto20 0.1 ng/ml (fold induction) [3]: 2.1
- ISRE-luciferase fold induction, BHK cells transfected with zcytoR19 and IL10Rb (CRF2-4), zcyto20 1 ng/ml (fold induction) [3]: 2.5
- ISRE-luciferase fold induction, BHK cells transfected with zcytoR19 and IL10Rb (CRF2-4), zcyto20 10 ng/ml (fold induction) [3]: 2.4
- ISRE-luciferase fold induction, BHK cells transfected with zcytoR19 and IL10Rb (CRF2-4), zcyto20 100 ng/ml (fold induction) [3]: 2.6
- ISRE-luciferase fold induction, BHK cells transfected with zcytoR19 and IL10Rb (CRF2-4), zcyto20 1000 ng/ml (fold induction) [3]: 2.1

Substance: zcyto20-CEE (ligand)
- Optical Density (570 nm) of EMCV-infected cells, HuzcytoR19-overexpressing 293 cells, Zcyto20-CEE 0.5 ng/ml, Anti-IL10Rb 5 µg/ml [2]: 0.95 OD 570 nm
- Optical Density (570 nm) of EMCV-infected cells, HuzcytoR19-overexpressing 293 cells, Zcyto20-CEE 0.5 ng/ml, Anti-LeptinR control antibody 5 µg/ml [2]: 2.24 OD 570 nm
- Optical Density (570 nm) of EMCV-infected cells, wild-type 293 cells, Zcyto20-CEE 200 ng/ml, Anti-IL10Rb 5 µg/ml [2]: 0.94 OD 570 nm
- Optical Density (570 nm) of EMCV-infected cells, wild-type 293 cells, Zcyto20-CEE 200 ng/ml, Anti-LeptinR control antibody 5 µg/ml [2]: 1.88 OD 570 nm

Substance: zcyto10 (from UniProt Q9NYY1 25-176) (ligand)
- ISRE-luciferase fold induction, 293 cells transfected with ISRE-Luc./Zcytor19, Zcyto10 125 ng/ml (fold induction) [1]: 1

Substance: zcyto21 (ligand)
- ISRE-luciferase fold induction, BHK cells transfected with zcytoR19 alone, zcyto21 0.001 ng/ml (fold induction) [1]: 1.3
- ISRE-luciferase fold induction, BHK cells transfected with zcytoR19 alone, zcyto21 0.01 ng/ml (fold induction) [1]: 1.4
- ISRE-luciferase fold induction, BHK cells transfected with zcytoR19 alone, zcyto21 0.1 ng/ml (fold induction) [1]: 1.4
- ISRE-luciferase fold induction, BHK cells transfected with zcytoR19 alone, zcyto21 1 ng/ml (fold induction) [1]: 2
- ISRE-luciferase fold induction, BHK cells transfected with zcytoR19 alone, zcyto21 10 ng/ml (fold induction) [1]: 2.4
- ISRE-luciferase fold induction, BHK cells transfected with zcytoR19 alone, zcyto21 100 ng/ml (fold induction) [1]: 2.6
- ISRE-luciferase fold induction, BHK cells transfected with zcytoR19 alone, zcyto21 1000 ng/ml (fold induction) [1]: 3.3
- ISRE-luciferase fold induction, wild-type 293 cells, Zcyto21 0.001 ng/ml (fold induction) [2]: 1.2
- ISRE-luciferase fold induction, wild-type 293 cells, Zcyto21 0.001 ng/ml + IL10Rb neutralizing Antibody (fold induction) [2]: 1.3
- ISRE-luciferase fold induction, wild-type 293 cells, Zcyto21 0.01 ng/ml (fold induction) [2]: 1.2
- ISRE-luciferase fold induction, wild-type 293 cells, Zcyto21 0.01 ng/ml + IL10Rb neutralizing Antibody (fold induction) [2]: 1.3
- ISRE-luciferase fold induction, wild-type 293 cells, Zcyto21 0.1 ng/ml (fold induction) [2]: 1.1
- ISRE-luciferase fold induction, wild-type 293 cells, Zcyto21 0.1 ng/ml + IL10Rb neutralizing Antibody (fold induction) [2]: 1.3
- ISRE-luciferase fold induction, wild-type 293 cells, Zcyto21 1 ng/ml (fold induction) [2]: 1.5
- ISRE-luciferase fold induction, wild-type 293 cells, Zcyto21 1 ng/ml + IL10Rb neutralizing Antibody (fold induction) [2]: 1.3
- ISRE-luciferase fold induction, wild-type 293 cells, Zcyto21 10 ng/ml (fold induction) [2]: 3.2
- ISRE-luciferase fold induction, wild-type 293 cells, Zcyto21 10 ng/ml + IL10Rb neutralizing Antibody (fold induction) [2]: 1.4
- ISRE-luciferase fold induction, wild-type 293 cells, Zcyto21 100 ng/ml (fold induction) [2]: 4.1
- ISRE-luciferase fold induction, wild-type 293 cells, Zcyto21 100 ng/ml + IL10Rb neutralizing Antibody (fold induction) [2]: 1.8
- ISRE-luciferase fold induction, zcytoR19-overexpressing 293 cells, Zcyto21 0.001 ng/ml (fold induction) [2]: 1.1
- ISRE-luciferase fold induction, zcytoR19-overexpressing 293 cells, Zcyto21 0.001 ng/ml + IL10Rb neutralizing Antibody (fold induction) [2]: 1
- ISRE-luciferase fold induction, zcytoR19-overexpressing 293 cells, Zcyto21 0.01 ng/ml (fold induction) [2]: 1.5
- ISRE-luciferase fold induction, zcytoR19-overexpressing 293 cells, Zcyto21 0.01 ng/ml + IL10Rb neutralizing Antibody (fold induction) [2]: 1.1
- ISRE-luciferase fold induction, zcytoR19-overexpressing 293 cells, Zcyto21 0.1 ng/ml (fold induction) [2]: 3.5
- ISRE-luciferase fold induction, zcytoR19-overexpressing 293 cells, Zcyto21 0.1 ng/ml + IL10Rb neutralizing Antibody (fold induction) [2]: 1
- ISRE-luciferase fold induction, zcytoR19-overexpressing 293 cells, Zcyto21 1 ng/ml (fold induction) [2]: 35
- ISRE-luciferase fold induction, zcytoR19-overexpressing 293 cells, Zcyto21 1 ng/ml + IL10Rb neutralizing Antibody (fold induction) [2]: 5.8
- ISRE-luciferase fold induction, zcytoR19-overexpressing 293 cells, Zcyto21 10 ng/ml (fold induction) [2]: 48
- ISRE-luciferase fold induction, zcytoR19-overexpressing 293 cells, Zcyto21 10 ng/ml + IL10Rb neutralizing Antibody (fold induction) [2]: 28
- ISRE-luciferase fold induction, zcytoR19-overexpressing 293 cells, Zcyto21 100 ng/ml (fold induction) [2]: 45
- ISRE-luciferase fold induction, zcytoR19-overexpressing 293 cells, Zcyto21 100 ng/ml + IL10Rb neutralizing Antibody (fold induction) [2]: 31
- ISRE-luciferase fold induction, BHK cells transfected with zcytoR19 and IL10Rb (CRF2-4), zcyto21 0.001 ng/ml (fold induction) [3]: 1.3
- ISRE-luciferase fold induction, BHK cells transfected with zcytoR19 and IL10Rb (CRF2-4), zcyto21 0.01 ng/ml (fold induction) [3]: 1.6
- ISRE-luciferase fold induction, BHK cells transfected with zcytoR19 and IL10Rb (CRF2-4), zcyto21 0.1 ng/ml (fold induction) [3]: 2.2
- ISRE-luciferase fold induction, BHK cells transfected with zcytoR19 and IL10Rb (CRF2-4), zcyto21 1 ng/ml (fold induction) [3]: 2.5
- ISRE-luciferase fold induction, BHK cells transfected with zcytoR19 and IL10Rb (CRF2-4), zcyto21 10 ng/ml (fold induction) [3]: 2.6
- ISRE-luciferase fold induction, BHK cells transfected with zcytoR19 and IL10Rb (CRF2-4), zcyto21 100 ng/ml (fold induction) [3]: 2.5
- ISRE-luciferase fold induction, BHK cells transfected with zcytoR19 and IL10Rb (CRF2-4), zcyto21 1000 ng/ml (fold induction) [3]: 2.2
